{"source": "patent US20250092426", "about": "“CAS ENDONUCLEASES AND RELATED METHODS” (Flagship Pioneering Innovations VII, LLC, published 2025)", "binders": {"B1": {"name": "BFP-to-GFP template RNA ; BFP reporter protospacer (ssRNA ; dsDNA)", "RNA": "GCCGAAGCACUGCACGCCGUGUUUUAGAGCUAGAAAUAGCAAGUUAAAAUAAGGCUAGUCCGUUAUCAACUUGAAAAAGUGGCACCGAGUCGGUGCACCCUGACGUACGGCGUGCAGUGCUU", "DNA 1": "GCCGAAGCACTGCACGCCGT", "DNA 2": "ACGGCGTGCAGTGCTTCGGC"}}, "target": "T1, CasEnd-26 (synthetic construct)", "T1 chain": "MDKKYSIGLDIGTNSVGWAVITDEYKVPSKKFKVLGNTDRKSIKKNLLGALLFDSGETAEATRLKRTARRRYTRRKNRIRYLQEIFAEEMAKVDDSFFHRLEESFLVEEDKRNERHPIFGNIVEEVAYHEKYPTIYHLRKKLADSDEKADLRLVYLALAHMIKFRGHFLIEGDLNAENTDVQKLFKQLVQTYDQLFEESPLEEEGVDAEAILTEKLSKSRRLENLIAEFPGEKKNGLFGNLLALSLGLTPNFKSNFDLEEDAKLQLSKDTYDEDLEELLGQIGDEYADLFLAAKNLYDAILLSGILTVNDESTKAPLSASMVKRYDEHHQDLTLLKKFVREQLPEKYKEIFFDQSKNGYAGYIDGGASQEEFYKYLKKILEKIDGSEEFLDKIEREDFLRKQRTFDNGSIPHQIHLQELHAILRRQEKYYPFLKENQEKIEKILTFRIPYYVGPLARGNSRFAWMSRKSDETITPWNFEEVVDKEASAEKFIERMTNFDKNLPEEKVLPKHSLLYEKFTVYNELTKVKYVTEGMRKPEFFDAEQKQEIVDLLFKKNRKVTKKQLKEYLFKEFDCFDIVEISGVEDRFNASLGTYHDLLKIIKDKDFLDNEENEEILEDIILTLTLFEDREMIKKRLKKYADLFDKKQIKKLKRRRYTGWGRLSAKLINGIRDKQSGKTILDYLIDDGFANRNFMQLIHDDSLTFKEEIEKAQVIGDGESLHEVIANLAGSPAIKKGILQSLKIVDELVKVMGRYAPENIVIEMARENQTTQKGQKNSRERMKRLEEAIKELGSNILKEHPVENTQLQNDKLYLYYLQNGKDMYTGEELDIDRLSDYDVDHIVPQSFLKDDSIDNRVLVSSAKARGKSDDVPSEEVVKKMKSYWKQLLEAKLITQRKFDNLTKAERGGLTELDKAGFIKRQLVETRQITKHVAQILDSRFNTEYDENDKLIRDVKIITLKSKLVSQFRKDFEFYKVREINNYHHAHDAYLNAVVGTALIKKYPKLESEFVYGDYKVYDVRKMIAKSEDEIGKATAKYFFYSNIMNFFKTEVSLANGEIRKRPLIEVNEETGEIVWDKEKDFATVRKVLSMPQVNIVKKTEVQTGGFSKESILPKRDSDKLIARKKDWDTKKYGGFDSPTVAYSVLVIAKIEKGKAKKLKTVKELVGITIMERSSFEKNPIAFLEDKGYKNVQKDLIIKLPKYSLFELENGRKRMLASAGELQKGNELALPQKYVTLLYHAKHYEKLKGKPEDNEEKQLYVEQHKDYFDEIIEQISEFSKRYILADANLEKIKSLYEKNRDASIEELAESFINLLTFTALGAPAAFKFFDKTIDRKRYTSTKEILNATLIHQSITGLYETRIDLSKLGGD", "assay": "cell_activity; +++; HEK293T; PAM not stated", "summary_of_the_method": "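Editing activity was scored as the fraction of GFP+ cells on day 4 by flow cytometry. BFP-expressing HEK293T cells (250,000) received by nucleofection 200 ng plasmid for the RT-Cas fusion protein and 200 ng template RNA plasmid designed to convert BFP to GFP.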"}
{"binder": "B1", "values": [{"measurement": "activity", "value": "≥ 100 % of reference"}]}
